Data set [1] concerns the molecule itself. Put plainly: crystal structure.
Data set [2] concerns the molecule itself. Put plainly: crystal structure. The source holds these as a separate data set.
Data set [3] deals with the molecule itself. Description: crystal structure. The source holds these as a separate data set.
The target of data set [4] is T1, human GRASP55 full length (residues 1–452) (human, UniProt Q9H8Y8-1 1-452). Description: AUC.
Data set [5] concerns the target T2, human GRASP55 N-terminal domain (residues 1–263) (human, UniProt Q9H8Y8-1 1-263). Put plainly: AUC.
Data set [6] addresses T1, human GRASP55 full length (residues …). Put plainly: SPR. On the technique in general: Surface plasmon resonance follows binding to a sensor surface in real time, without labels.
Data set [7] concerns the target T2, human GRASP55 N-terminal domain …. Put plainly: SPR.

Where two headings read alike, the source gives them in different places.

B1: human KCTD5 N-module (residues 40–145) (domain or fragment)
chain: not shown
On to B1, for which the stoichiometry N (usually the number of molecules, sites or subunits per partner or assembly) in “crystal structure [1]” was 5 subunits.

B2: human KCTD5 residues 34–234, seleno-methionine labeled (domain or fragment, UniProt Q9NXV2 34-234, looked up)
chain: ALAQRPGSVSKWVRLNVGGTYFLTTRQTLCRDPKSFLYRLCQADPDLDSDKDETGAYLIDRDPTYFGPVLNYLRHGKLVINKDLAEEGVLEEAEFYNITSLIKLVKDKIRERDSKTSQVPVKHVYRVLQCQEEELTQMVSTMSDGWKFEQLVSIGSSYNYGNEDQAEFLCVVSKELHNTPYGTASEPSEKAKILQERGSRM
modifications: seleno-methionine labeled (two seleno-methionine residues, M171 and M175, in the C-terminal domain)
For B2, in “crystal structure [2]”, the “stoichiometry N” value worked out at 5 subunits.

B3: human KCTD5 residues 34–234 ("full length" construct for structural and binding analysis), native (domain or fragment, UniProt Q9NXV2 34-234, looked up)
chain: ALAQRPGSVSKWVRLNVGGTYFLTTRQTLCRDPKSFLYRLCQADPDLDSDKDETGAYLIDRDPTYFGPVLNYLRHGKLVINKDLAEEGVLEEAEFYNITSLIKLVKDKIRERDSKTSQVPVKHVYRVLQCQEEELTQMVSTMSDGWKFEQLVSIGSSYNYGNEDQAEFLCVVSKELHNTPYGTASEPSEKAKILQERGSRM
B3: in “crystal structure [3]”, the “stoichiometry N” value amounted to 5 subunits. Also, the dissociation constant (Kd) – broadly, the concentration at which binding is half-saturated – came out at 1.41 ± 0.26 µM in data set [4] and 8.26 ± 1.6 µM in data set [5]. Also, the koff (commonly the rate constant with which the complex falls apart) was 0.00103 s⁻¹ in data set [6] and 0.00223 s⁻¹ in data set [7]. In addition, the values for the kon in data set [6] and in data set [7] were 870 M⁻¹ s⁻¹ and 2590 M⁻¹ s⁻¹, respectively.

The values above are taken from article PMC2670943 (Journal of molecular biology, 2009).
